Among the data in patent US20140087995A1 (published 2014) are IC50 values, retold here.

In this test the target is T1, human amylin receptor (human, UniProt P30988 25-474; O60896 24-148, limits assumed).
T1 construct: whole, on cells; Calcitonin receptor plus RAMP-3 gives the amylin 3(a) receptor; membranes of Amylin 3(a)/CRE-luc cells were used; also called hAmylin-R; hAmylinR
T1 sequence (looked up) 1: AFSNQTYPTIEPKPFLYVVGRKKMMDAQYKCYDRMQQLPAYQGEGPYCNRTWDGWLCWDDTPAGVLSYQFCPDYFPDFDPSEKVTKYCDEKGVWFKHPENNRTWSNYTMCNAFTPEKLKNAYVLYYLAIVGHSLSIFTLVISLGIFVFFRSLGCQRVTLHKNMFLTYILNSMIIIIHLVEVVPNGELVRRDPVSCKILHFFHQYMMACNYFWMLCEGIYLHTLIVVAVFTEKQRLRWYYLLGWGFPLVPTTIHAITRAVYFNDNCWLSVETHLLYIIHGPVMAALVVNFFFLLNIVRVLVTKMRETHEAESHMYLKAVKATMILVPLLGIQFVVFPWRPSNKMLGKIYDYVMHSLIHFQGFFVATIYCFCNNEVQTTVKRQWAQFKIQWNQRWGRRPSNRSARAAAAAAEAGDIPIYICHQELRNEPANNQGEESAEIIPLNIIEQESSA
T1 sequence (looked up) 2: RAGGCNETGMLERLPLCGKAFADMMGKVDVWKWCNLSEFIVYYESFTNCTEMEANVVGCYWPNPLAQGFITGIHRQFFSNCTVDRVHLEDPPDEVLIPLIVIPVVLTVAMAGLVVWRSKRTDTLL
Description: SPA competition binding, displacement of 125I-rat amylin from membranes with human amylin 3(a) receptor (Assay V). Put shortly:
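One-site competition analysis of SPA counts yielded IC₅₀ as a measure of affinity. Membranes were at 35 ng/μL final; incubation was 120 min at 25° C, pH 7.4.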
(Loss of bound radioactivity is the signal in a displacement assay; it reports binding, not function.)

Numbered stars: 1 amine (or outer) side, 2 acyl side, 3 side chain; on linkers, the order of the positions; unused ones are H or OH. Bridge positions count the residues as written; N and C are the ends. Side chains are listed from the residue outwards. Ends that are not written are not given here. * marks the point of attachment. C20 diacid = O=C(O)CCCCCCCCCCCCCCCCCCC(=O)*; γGlu = O=C(O)[C@H](CCC(=O)[*:2])N[*:1]; AEEA = NCCOCCOCC(=O)O

B1: N^ε1-[2-[2-[2-[[2-[2-[2-[[(4S)-4-carboxy-4-(19-carboxynonadecanoylamino)butanoyl]amino]ethoxy]ethoxy]acetyl]amino]ethoxy]ethoxy]acetyl]-[Arg17,Pro21,Pro27,Pro34 … (peptide)
peptide: K([AEEA-AEEA-γGlu-C20 diacid])CNTATCATQRLANFLRHSSPNFGAIPSSTNVGPNTY-NH2
modifications: disulfide 2-7; N-terminus assumed
SMILES: CC[C@H](C)[C@H](NC(=O)[C@H](C)NC(=O)CNC(=O)[C@H](Cc1ccccc1)NC(=O)[C@H](CC(N)=O)NC(=O)[C@@H]1CCCN1C(=O)[C@H](CO)NC(=O)[C@H](CO)NC(=O)[C@H](Cc1c[nH]cn1)NC(=O)[C@H](CCCNC(=N)N)NC(=O)[C@H](CC(C)C)NC(=O)[C@H](Cc1ccccc1)NC(=O)[C@H](CC(N)=O)NC(=O)[C@H](C)NC(=O)[C@H](CC(C)C)NC(=O)[C@H](CCCNC(=N)N)NC(=O)[C@H](CCC(N)=O)NC(=O)[C@@H](NC(=O)[C@H](C)NC(=O)[C@@H]1CSSC[C@H](NC(=O)[C@@H](N)CCCCNC(=O)COCCOCCNC(=O)COCCOCCNC(=O)CC[C@H](NC(=O)CCCCCCCCCCCCCCCCCCC(=O)O)C(=O)O)C(=O)N[C@@H](CC(N)=O)C(=O)N[C@@H]([C@@H](C)O)C(=O)N[C@@H](C)C(=O)N[C@@H]([C@@H](C)O)C(=O)N1)[C@@H](C)O)C(=O)N1CCC[C@H]1C(=O)N[C@@H](CO)C(=O)N[C@@H](CO)C(=O)N[C@H](C(=O)N[C@@H](CC(N)=O)C(=O)N[C@H](C(=O)NCC(=O)N1CCC[C@H]1C(=O)N[C@@H](CC(N)=O)C(=O)N[C@H](C(=O)N[C@@H](Cc1ccc(O)cc1)C(N)=O)[C@@H](C)O)C(C)C)[C@@H](C)O
notes: also called 17R, 21P, 27P, 34P
A word on the IC50: it is the concentration that inhibits the measured activity by half. Read a low IC50 as greater potency. The molecule B1 showed an IC50 of 0.091 nM.

B2: N^ε1-[2-[2-[2-[[(4S)-4-carboxy-4-(19-carboxynonadecanoylamino)butanoyl]amino]ethoxy]ethoxy]acetyl]-[Arg14,Arg17,Pro21,Pro27]-h-amylin (peptide)
peptide: K([AEEA-γGlu-C20 diacid])CNTATCATQRLARFLRHSSPNFGAIPSSTNVGSNTY-NH2
modifications: disulfide 2-7; N-terminus assumed
SMILES: CC[C@H](C)[C@H](NC(=O)[C@H](C)NC(=O)CNC(=O)[C@H](Cc1ccccc1)NC(=O)[C@H](CC(N)=O)NC(=O)[C@@H]1CCCN1C(=O)[C@H](CO)NC(=O)[C@H](CO)NC(=O)[C@H](Cc1c[nH]cn1)NC(=O)[C@H](CCCNC(=N)N)NC(=O)[C@H](CC(C)C)NC(=O)[C@H](Cc1ccccc1)NC(=O)[C@H](CCCNC(=N)N)NC(=O)[C@H](C)NC(=O)[C@H](CC(C)C)NC(=O)[C@H](CCCNC(=N)N)NC(=O)[C@H](CCC(N)=O)NC(=O)[C@@H](NC(=O)[C@H](C)NC(=O)[C@@H]1CSSC[C@H](NC(=O)[C@@H](N)CCCCNC(=O)COCCOCCNC(=O)CC[C@H](NC(=O)CCCCCCCCCCCCCCCCCCC(=O)O)C(=O)O)C(=O)N[C@@H](CC(N)=O)C(=O)N[C@@H]([C@@H](C)O)C(=O)N[C@@H](C)C(=O)N[C@@H]([C@@H](C)O)C(=O)N1)[C@@H](C)O)C(=O)N1CCC[C@H]1C(=O)N[C@@H](CO)C(=O)N[C@@H](CO)C(=O)N[C@H](C(=O)N[C@@H](CC(N)=O)C(=O)N[C@H](C(=O)NCC(=O)N[C@@H](CO)C(=O)N[C@@H](CC(N)=O)C(=O)N[C@H](C(=O)N[C@@H](Cc1ccc(O)cc1)C(N)=O)[C@@H](C)O)C(C)C)[C@@H](C)O
notes: also called 14R, 17R, 21P, 27P
For B2, the IC50 was found to be 0.636 nM.

B3: N^ε1-[2-[2-[2-[[(4S)-4-carboxy-4-(19-carboxynonadecanoylamino)butanoyl]amino]ethoxy]ethoxy]acetyl]-[Ala14,Arg17,Pro21,Pro27,Pro31]-h-amylin (peptide)
peptide: K([AEEA-γGlu-C20 diacid])CNTATCATQRLAAFLRHSSPNFGAIPSSTPVGSNTY-NH2
modifications: disulfide 2-7; N-terminus assumed
SMILES: CC[C@H](C)[C@H](NC(=O)[C@H](C)NC(=O)CNC(=O)[C@H](Cc1ccccc1)NC(=O)[C@H](CC(N)=O)NC(=O)[C@@H]1CCCN1C(=O)[C@H](CO)NC(=O)[C@H](CO)NC(=O)[C@H](Cc1c[nH]cn1)NC(=O)[C@H](CCCNC(=N)N)NC(=O)[C@H](CC(C)C)NC(=O)[C@H](Cc1ccccc1)NC(=O)[C@H](C)NC(=O)[C@H](C)NC(=O)[C@H](CC(C)C)NC(=O)[C@H](CCCNC(=N)N)NC(=O)[C@H](CCC(N)=O)NC(=O)[C@@H](NC(=O)[C@H](C)NC(=O)[C@@H]1CSSC[C@H](NC(=O)[C@@H](N)CCCCNC(=O)COCCOCCNC(=O)CC[C@H](NC(=O)CCCCCCCCCCCCCCCCCCC(=O)O)C(=O)O)C(=O)N[C@@H](CC(N)=O)C(=O)N[C@@H]([C@@H](C)O)C(=O)N[C@@H](C)C(=O)N[C@@H]([C@@H](C)O)C(=O)N1)[C@@H](C)O)C(=O)N1CCC[C@H]1C(=O)N[C@@H](CO)C(=O)N[C@@H](CO)C(=O)N[C@H](C(=O)N1CCC[C@H]1C(=O)N[C@H](C(=O)NCC(=O)N[C@@H](CO)C(=O)N[C@@H](CC(N)=O)C(=O)N[C@H](C(=O)N[C@@H](Cc1ccc(O)cc1)C(N)=O)[C@@H](C)O)C(C)C)[C@@H](C)O
notes: also called 14A, 17R, 21P, 27P, 31P
Molecule B3 registered an IC50 of 0.172 nM.

B4: N^ε1-[2-[2-[2-[[(4S)-4-carboxy-4-(19-carboxynonadecanoylamino)butanoyl]amino]ethoxy]ethoxy]acetyl]-[Arg17,Pro21,Pro27,Arg34]-h-amylin (peptide)
peptide: K([AEEA-γGlu-C20 diacid])CNTATCATQRLANFLRHSSPNFGAIPSSTNVGRNTY-NH2
modifications: disulfide 2-7; N-terminus assumed
SMILES: CC[C@H](C)[C@H](NC(=O)[C@H](C)NC(=O)CNC(=O)[C@H](Cc1ccccc1)NC(=O)[C@H](CC(N)=O)NC(=O)[C@@H]1CCCN1C(=O)[C@H](CO)NC(=O)[C@H](CO)NC(=O)[C@H](Cc1c[nH]cn1)NC(=O)[C@H](CCCNC(=N)N)NC(=O)[C@H](CC(C)C)NC(=O)[C@H](Cc1ccccc1)NC(=O)[C@H](CC(N)=O)NC(=O)[C@H](C)NC(=O)[C@H](CC(C)C)NC(=O)[C@H](CCCNC(=N)N)NC(=O)[C@H](CCC(N)=O)NC(=O)[C@@H](NC(=O)[C@H](C)NC(=O)[C@@H]1CSSC[C@H](NC(=O)[C@@H](N)CCCCNC(=O)COCCOCCNC(=O)CC[C@H](NC(=O)CCCCCCCCCCCCCCCCCCC(=O)O)C(=O)O)C(=O)N[C@@H](CC(N)=O)C(=O)N[C@@H]([C@@H](C)O)C(=O)N[C@@H](C)C(=O)N[C@@H]([C@@H](C)O)C(=O)N1)[C@@H](C)O)C(=O)N1CCC[C@H]1C(=O)N[C@@H](CO)C(=O)N[C@@H](CO)C(=O)N[C@H](C(=O)N[C@@H](CC(N)=O)C(=O)N[C@H](C(=O)NCC(=O)N[C@@H](CCCNC(=N)N)C(=O)N[C@@H](CC(N)=O)C(=O)N[C@H](C(=O)N[C@@H](Cc1ccc(O)cc1)C(N)=O)[C@@H](C)O)C(C)C)[C@@H](C)O
notes: also called 17R, 21P, 27P, 34R
The molecule B4 displayed an IC50 of 0.602 nM.

B5: N^ε1-[2-[2-[2-[[(4S)-4-carboxy-4-(19-carboxynonadecanoylamino)butanoyl]amino]ethoxy]ethoxy]acetyl]-[Arg17,Pro21,Pro27,Arg35]-h-amylin (peptide)
peptide: K([AEEA-γGlu-C20 diacid])CNTATCATQRLANFLRHSSPNFGAIPSSTNVGSRTY-NH2
modifications: disulfide 2-7; N-terminus assumed
SMILES: CC[C@H](C)[C@H](NC(=O)[C@H](C)NC(=O)CNC(=O)[C@H](Cc1ccccc1)NC(=O)[C@H](CC(N)=O)NC(=O)[C@@H]1CCCN1C(=O)[C@H](CO)NC(=O)[C@H](CO)NC(=O)[C@H](Cc1c[nH]cn1)NC(=O)[C@H](CCCNC(=N)N)NC(=O)[C@H](CC(C)C)NC(=O)[C@H](Cc1ccccc1)NC(=O)[C@H](CC(N)=O)NC(=O)[C@H](C)NC(=O)[C@H](CC(C)C)NC(=O)[C@H](CCCNC(=N)N)NC(=O)[C@H](CCC(N)=O)NC(=O)[C@@H](NC(=O)[C@H](C)NC(=O)[C@@H]1CSSC[C@H](NC(=O)[C@@H](N)CCCCNC(=O)COCCOCCNC(=O)CC[C@H](NC(=O)CCCCCCCCCCCCCCCCCCC(=O)O)C(=O)O)C(=O)N[C@@H](CC(N)=O)C(=O)N[C@@H]([C@@H](C)O)C(=O)N[C@@H](C)C(=O)N[C@@H]([C@@H](C)O)C(=O)N1)[C@@H](C)O)C(=O)N1CCC[C@H]1C(=O)N[C@@H](CO)C(=O)N[C@@H](CO)C(=O)N[C@H](C(=O)N[C@@H](CC(N)=O)C(=O)N[C@H](C(=O)NCC(=O)N[C@@H](CO)C(=O)N[C@@H](CCCNC(=N)N)C(=O)N[C@H](C(=O)N[C@@H](Cc1ccc(O)cc1)C(N)=O)[C@@H](C)O)C(C)C)[C@@H](C)O
notes: also called 17R, 21P, 27P, 35R
In turn, B5 displayed an IC50 of 0.249 nM.

B6: N^ε1-[2-[2-[2-[[(4S)-4-carboxy-4-(19-carboxynonadecanoylamino)butanoyl]amino]ethoxy]ethoxy]acetyl]-[Arg14,Arg17,Pro21,Pro27,Pro31]-h-amylin (peptide)
peptide: K([AEEA-γGlu-C20 diacid])CNTATCATQRLARFLRHSSPNFGAIPSSTPVGSNTY-NH2
modifications: disulfide 2-7; N-terminus assumed
SMILES: CC[C@H](C)[C@H](NC(=O)[C@H](C)NC(=O)CNC(=O)[C@H](Cc1ccccc1)NC(=O)[C@H](CC(N)=O)NC(=O)[C@@H]1CCCN1C(=O)[C@H](CO)NC(=O)[C@H](CO)NC(=O)[C@H](Cc1c[nH]cn1)NC(=O)[C@H](CCCNC(=N)N)NC(=O)[C@H](CC(C)C)NC(=O)[C@H](Cc1ccccc1)NC(=O)[C@H](CCCNC(=N)N)NC(=O)[C@H](C)NC(=O)[C@H](CC(C)C)NC(=O)[C@H](CCCNC(=N)N)NC(=O)[C@H](CCC(N)=O)NC(=O)[C@@H](NC(=O)[C@H](C)NC(=O)[C@@H]1CSSC[C@H](NC(=O)[C@@H](N)CCCCNC(=O)COCCOCCNC(=O)CC[C@H](NC(=O)CCCCCCCCCCCCCCCCCCC(=O)O)C(=O)O)C(=O)N[C@@H](CC(N)=O)C(=O)N[C@@H]([C@@H](C)O)C(=O)N[C@@H](C)C(=O)N[C@@H]([C@@H](C)O)C(=O)N1)[C@@H](C)O)C(=O)N1CCC[C@H]1C(=O)N[C@@H](CO)C(=O)N[C@@H](CO)C(=O)N[C@H](C(=O)N1CCC[C@H]1C(=O)N[C@H](C(=O)NCC(=O)N[C@@H](CO)C(=O)N[C@@H](CC(N)=O)C(=O)N[C@H](C(=O)N[C@@H](Cc1ccc(O)cc1)C(N)=O)[C@@H](C)O)C(C)C)[C@@H](C)O
notes: also called 14R, 17R, 21P, 27P, 31P
B6 had an IC50 of 0.444 nM.
